The target of this assay is F-actin labeled at Cys-374 with fluorescein-5-maleimide (FMAL-actin) (rabbit) (UniProt P68135). Put plainly: FRET or BRET. For orientation: BRET reads energy transfer from a luciferase to a nearby fluorophore.

As usually defined, the Kd is the constant that tells how readily two partners part at equilibrium. Higher therefore signals weaker binding. Take “single-cysteine C0-C2^Cys225 of human cMyBP-C labeled with tetramethylrhodamine (TMR-C0-C2^Cys225) (domain or fragment)”: the Kd is 1 µM and the donor lifetime τDA of FMAL-actin with 20 μM TMR-C0-C2^Cys225 (τD = 4.2 ns) is 2 ns.
“TMR-C0-C2^Cys225 of human cMyBP-C phosphorylated by PKA (domain or fragment)” displayed a Kd of 3 µM. This lies in the single-digit micromolar range.

The record behind these values is article doi:10.1101/2021.03.24.436879.
